The target of test [1] is HLA-B*15:01. Kind of test: IEDB peptide-MHC binding, purified MHC/competitive/fluorescence; ≥ and ≤ were set here for values at or beyond the usual limits of such assays.
For test [2], the target named is HLA-A*02:01. The test is described as above.
Test [3] deals with HLA-A*24:02. The description is as above.
Test [4] has as its target HLA-B*57:01. Kind of test: IEDB peptide-MHC binding, purified MHC/competitive/radioactivity; filed as Kd, often an IC50 or EC50 that approximates it; ≥ and ≤ were set here for values at or beyond the usual limits of such assays.
Test [5] deals with HLA-B*58:01. The test is described as above.
The target of test [6] is HLA-B*15:01. Kind of test: IEDB peptide-MHC binding, purified MHC/direct/fluorescence; filed as Kd, often an IC50 or EC50 that approximates it; ≥ and ≤ were set here for values at or beyond the usual limits of such assays.
Test [7] concerns the target HLA-B*48:01. The description is as above.
Test [8] addresses HLA-B*08:01. The test is described as above.
The target in test [9] is HLA-B*44:02. The description is as above.
In test [10] the target is HLA-B*46:01. The test is described as above.
Test [11] concerns the target HLA-B*07:02. Described as above.
Test [12] has as its target HLA-A*03:01. Described as above.
Test [13] deals with HLA-A*02:01. Described as above.
Test [14] deals with HLA-B*57:01. The test is described as above.
For test [15], the target named is HLA-A*29:02. Described as above.
In test [16] the target is HLA-A*11:01. The description is as above.
The target in test [17] is HLA-A*31:01. The test is described as above.
Test [18] concerns the target HLA-B*27:05. Described as above.
Test [19] addresses HLA-B*58:01. The test is described as above.
Test [20] deals with HLA-A*01:01. Described as above.
Test [21] addresses HLA-B*51:01. The description is as above.
Test [22] addresses HLA-A*26:01. Described as above. The following applies: source organism: Yersinia pestis.
In test [23] the target is HLA-B*40:01. Described as above. The following applies: source organism: Yersinia pestis.
Test [24] concerns the target HLA-A*69:01. The description is as above.
The target in test [25] is HLA-A*02:19. The description is as above. Conditions: source organism: Yersinia enterocolitica subsp. enterocolitica 8081.
For test [26], the target named is HLA-A*02:12. The test is described as above. The following applies: source organism: Yersinia enterocolitica subsp. enterocolitica 8081.
The target of test [27] is HLA-B*53:01. Kind of test: IEDB peptide-MHC binding, purified MHC/competitive/radioactivity; filed as Kd, often an IC50 or EC50 that approximates it; ≥ and ≤ were set here for values at or beyond the usual limits of such assays. The following applies: source organism: Dengue virus 3 Martinique/1243/1999.
For test [28], the target named is HLA-A*03:01. Kind of test: IEDB peptide-MHC binding, purified MHC/competitive/fluorescence; ≥ and ≤ were set here for values at or beyond the usual limits of such assays. Conditions: source organism: Zaire ebolavirus.
For test [29], the target named is HLA-A*11:01. Described as above. The following applies: source organism: Zaire ebolavirus.
In test [30] the target is HLA-A*32:01. Kind of test: IEDB peptide-MHC binding, purified MHC/competitive/radioactivity; filed as Kd, often an IC50 or EC50 that approximates it; ≥ and ≤ were set here for values at or beyond the usual limits of such assays.
Test [31] has as its target HLA-B*18:01. Kind of test: IEDB peptide-MHC binding, purified MHC/direct/fluorescence; filed as Kd, often an IC50 or EC50 that approximates it; ≥ and ≤ were set here for values at or beyond the usual limits of such assays. Conditions: source organism: Mammarenavirus juninense.
The target in test [32] is HLA-A*24:02. Kind of test: IEDB peptide-MHC binding, purified MHC/competitive/radioactivity; filed as Kd, often an IC50 or EC50 that approximates it; ≥ and ≤ were set here for values at or beyond the usual limits of such assays. The following applies: source organism: Dengue virus 3 Martinique/1243/1999.
The mark [33] stands for this setting: source organism: Zaire ebolavirus.
[34] abbreviates: source organism: Vaccinia virus Copenhagen.
Setting [35] is: source organism: Dengue virus 1 Brazil/97-11/1997.
The mark [36] stands for this setting: source organism: Mammarenavirus lassaense.
Setting [37] is: source organism: Dengue virus 4 Philippines/H241/1956.
Where [38] appears, read: source organism: Yersinia pestis Nepal516.
[39] abbreviates: source organism: Yersinia pestis.
Setting [40] is: source organism: Yersinia enterocolitica subsp. enterocolitica 8081.
Where [41] appears, read: source organism: Dengue virus 2 Jamaica/1409/1983.
Setting [42] is: source organism: Dengue virus 3 Martinique/1243/1999.
Where [43] appears, read: source organism: Sudan ebolavirus.
Setting [44] is: source organism: Giardia lamblia ATCC 50803.
Where [45] appears, read: source organism: Dengue virus 3 Singapore/8120/1995.
The mark [46] stands for this setting: source organism: Lassa virus Josiah.
[47] abbreviates: source organism: Mammarenavirus juninense.
Setting [48] is: source organism: Bacillus anthracis.

Broadly, the IC50 is the concentration that gives 50% inhibition. For the sequence AMNEENRFV, the IC50 in test [1] (setting [33]) was at least 220 µM; in test [2] (setting [33]), 6.8 µM.

Consider ASPMLYQLL, for which the IC50 in test [1] (setting [34]) is 37.2 µM; in test [3] (setting [34]), 0.233 µM; in test [2] (setting [34]) it was 39.6 µM.

The term Kd denotes the constant that tells how readily two partners part at equilibrium. Regarding CTSQILLMRT, the Kd is 2.41 µM in test [4] (setting [35]) and 17.1 µM in test [5] (setting [35]).

For the sequence DIKLIDIAL, the Kd in [6] (setting [36]) is at least 20 µM; in test [7] (setting [36]), at least 20 µM; in [8] (setting [36]) it was 0.894 µM; in [9] (setting [36]) it was at least 20 µM; in test [10] (setting [36]), at least 20 µM; in test [11] (setting [36]), at least 20 µM. Besides, the Kd in [12] (setting [36]), in test [13] (setting [36]), in test [14] (setting [36]), in test [15] (setting [36]), in [16] (setting [36]) and in [17] (setting [36]) was at least 20 µM throughout. Moreover, the equilibrium dissociation constant (Kd) in [18] (setting [36]), in test [19] (setting [36]) and in test [20] (setting [36]) was at least 20 µM each time.

As to ESSSNPTIEE, the figures for the Kd in test [4] (setting [37]) and in test [5] (setting [37]) were 2.32 µM and 9.49 µM, respectively.

Regarding ETIFTVLAL, the Kd in test [6] (setting [38]) is at least 20 µM; in [8] (setting [38]), at least 20 µM; in [9] (setting [38]), at least 20 µM; in test [11] (setting [39]), 4.5 µM; in test [12] (setting [38]), at least 20 µM; in [13] (setting [38]), at least 20 µM. Moreover, the Kd in test [14] (setting [40]) was at least 20 µM; in test [21] (setting [40]), at least 20 µM; in test [15] (setting [40]) it was 0.182 µM; in [16] (setting [38]), at least 20 µM; in test [22], 0.00767 µM; in test [23], 2.41 µM. Also, the Kd in test [17] (setting [38]) is at least 20 µM; in [18] (setting [38]), at least 20 µM; in [24] (setting [39]), 0.0035 µM; in test [19] (setting [38]) it was at least 20 µM; in [25], at least 20 µM; in test [26] it was at least 20 µM. In test [20] (setting [38]), this sequence yielded a Kd of at least 20 µM.

Turning to FGSLGGVFTS, the Kd in test [4] (setting [41]) was found to be 2.18 µM; in test [5] (setting [41]), 5.33 µM.

In the case of FLPNPAFIH, the IC50 was 25.5 µM in test [1] (source organism: Variola virus), 0.497 µM in [3] (source organism: Variola virus) and 2.11 µM in test [2] (source organism: Variola virus).

With GATTETPTW, the Kd in [27] was 0.0692 µM; in test [4] (setting [42]) it was 0.0804 µM; in test [5] (setting [42]) it was 0.00208 µM.

On to HMQISTIGI, for which the figures for the IC50 in test [1] (setting [43]), in test [3] (setting [43]) and in test [2] (setting [43]) were 9.61 µM, 15.6 µM and 4.09 µM, respectively.

On to KAIDFLLQR, for which the IC50 is at least 161 µM in test [3] (setting [33]), 28.8 µM in test [28], 9.59 µM in test [2] (setting [33]) and 0.693 µM in [29].

On to KAKGSRAIW, for which the Kd came to 0.0101 µM in test [4] (setting [42]) and 0.279 µM in test [5] (setting [42]).

As for KASFIEVKSC, the Kd was determined as 0.109 µM in test [4] (setting [41]) and 0.37 µM in [5] (setting [41]).

For the sequence KLRSNALSL, the Kd in [6] (setting [44]) is 0.025 µM; in [11] (setting [44]) it was 0.008 µM; in test [21] (setting [44]) it was at least 20 µM.

Regarding KVMEITAEW, the Kd in test [30] (setting [45]) is 0.0143 µM; in [4] (setting [45]) it was 0.0181 µM; in [5] (setting [45]) it was 0.00109 µM.

Regarding LPTKLRPSA, the figures for the Kd in [11] (setting [46]) and in [21] (setting [46]) were 0.103 µM and at least 20 µM, respectively.

On to LQLFLRATT, for which the IC50 in test [1] (setting [43]) was at least 91.4 µM; in [2] (setting [43]) it was at least 125 µM.

Regarding PATLLVWHTW, the Kd in test [30] (setting [42]) worked out at 3.67 µM; in test [4] (setting [42]), 1.39 µM; in test [5] (setting [42]) it was 0.278 µM.

QLAKRSEIL: the Kd in test [7] (setting [47]) is at least 20 µM; in [31], at least 20 µM; in test [8] (setting [47]), 1.3 µM; in [9] (setting [47]), at least 20 µM; in test [10] (setting [47]) it was at least 20 µM; in test [12] (setting [47]), at least 20 µM. Also, the Kd in test [14] (setting [47]), in test [15] (setting [47]), in [16] (setting [47]), in test [17] (setting [47]), in test [18] (setting [47]) and in [24] (setting [47]) was at least 20 µM throughout. The Kd in test [19] (setting [47]) and in test [20] (setting [47]) was at least 20 µM each time.

In the case of RPQHVKKSA, the figures for the Kd in test [6] (source organism: Bacillus cereus NVH0597-99), in test [11] (setting [48]) and in test [21] (setting [48]) were at least 20 µM, 0.0085 µM and at least 20 µM, respectively.

SASEAVNDSR: the Kd in test [4] (setting [37]) came to 1.39 µM; in test [5] (setting [37]), 0.0401 µM.

As to SLTESDMDY, the IC50 in test [1] (setting [33]) is 68.3 µM; in test [2] (setting [33]), at least 140 µM.

As for TSSQQKADWI, the Kd in test [4] (setting [41]) was 2.59 µM; in test [5] (setting [41]) it was 1.07 µM.

Turning to WMAEIPLQW, the Kd was determined as 0.174 µM in [32] and 0.0138 µM in test [5] (setting [42]).

Consider YFGPAAEGI, for which the IC50 is at least 197 µM in [1] (setting [33]), 0.253 µM in [3] (setting [33]) and 60 µM in [2] (setting [33]).

(Values after the Immune Epitope Database (IEDB).)
